Data: PMC3554283 (Diabetes Care, 2013)

Experiments:
[1] = Serum insulin pharmacokinetics after subcutaneous injection; assay type: in vivo, human; conditions: 0.15 units/kg s.c., 14 healthy volunteers
healthy volunteers = experiment: Eight-hour euglycemic glucose clamp; assay type: in vivo, human; conditions: mean ± SD; 0.15 units/kg s.c.; 14 healthy volunteers; 8-h euglycemic clamp

insulin glulisine
onset (early t50%) of exposure [1]: 21 min
tmax [1]: 1.33 h
onset of action (early T50% GIRmax) (healthy volunteers): 47 ± 19 min
time to 50% glucose infused (healthy volunteers): 183 ± 34 min
